Assay results: patent US20190202925A1 (OPI VI IP HOLDCO, published 2019)

Tests used:
[1] = target: T1, monomeric human TNFR2 extracellular domain (human, UniProt P20333 23-257); assay: BLI (Octet Red 96), antibody captured on Fc biosensor, monomeric TNFR2 ECD in solution, 1:1 model
T1 construct: extracellular domain; Analyte in the Octet experiments; also called human TNFR2 ECD
T1 sequence (looked up): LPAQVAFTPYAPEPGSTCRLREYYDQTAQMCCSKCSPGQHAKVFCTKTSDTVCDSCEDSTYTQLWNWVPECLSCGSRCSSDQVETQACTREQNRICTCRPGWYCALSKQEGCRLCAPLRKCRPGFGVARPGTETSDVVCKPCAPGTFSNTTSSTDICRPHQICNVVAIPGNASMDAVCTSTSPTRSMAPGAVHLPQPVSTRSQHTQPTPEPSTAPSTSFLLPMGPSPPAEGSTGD
Protocol: Analysis of binding to the human and cynomolgus TNFR2 ECD was performed using an Octet Red 96 Instrument™ (ForteBio). […] The experiments were performed using five steps: (1) baseline acquisition (60 s); (2) antibody loading on to anti-human or anti-mouse Fc biosensors (120 s); (3) second baseline acquisition (60 s); (4) association of interacting monomeric human or cynomolgus TNFR2 ECD protein for kₒₙ measurement (120 s); and (5) dissociation of interacting monomeric human or cynomolgus TNFR2 ECD for koff measurement (240-3600 s).
The interacting monomeric human or cynomolgus ECD was used at 5-6 concentrations of a 3-fold concentration series. The data were analyzed using Octet Data Analysis Software 9.0™ (ForteBio) and fit to the 1:1 binding model. The equilibrium dissociation constants (Kd) were calculated by the ratio of […].

[2] = target: T1, monomeric human TNFR2 extracellular …; assay: BLI (Octet Red 96), Human TNFR2 Kd (1-1)
soluble human TNFR2 [3] = target: T2, soluble human TNFR2 (human, UniProt P20333 23-257); assay: competition ELISA (FIG. 1), plate-bound soluble human TNFR2, constant biotinylated TNFα as competitor
T2 construct: also called soluble TNFR2
T2 sequence (looked up): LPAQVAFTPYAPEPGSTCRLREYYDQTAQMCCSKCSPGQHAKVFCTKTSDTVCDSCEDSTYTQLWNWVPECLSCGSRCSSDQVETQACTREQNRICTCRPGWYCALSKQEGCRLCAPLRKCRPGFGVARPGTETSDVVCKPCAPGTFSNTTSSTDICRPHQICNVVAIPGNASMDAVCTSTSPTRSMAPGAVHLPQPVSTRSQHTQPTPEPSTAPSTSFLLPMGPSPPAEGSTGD
Description: (§1) Soluble human TNFR2 was coated on Nunc-Immuno™ plates. […] IC₅₀ values are reported in nM.

soluble human TNFR2 [4] = target: T2, soluble human TNFR2; assay: competition ELISA (FIG. 2), plate-bound soluble human TNFR2, constant biotinylated TNFα as competitor; unit from paragraph 202 (IC50 values are reported in nM)
Description: as §1

Kd [1]: 1.8 nM | Kd [2]: 1.1 nM | IC50 (soluble human TNFR2 [3]): 7.88 nM | IC50 (soluble human TNFR2 [4]): 6.59 nM
B1: SBT-004 (antibody, V domains shown)
VH: EVQLQQSGPEVGRPGSSVKISCKASGYTFTDYIMHWVKQSPGQGLEWIGWVDPEYGSTDYAEKFKKKATLTADTSSNTAYIQLSSLTSEDTATYFCARDDGSYSPFDYWGQGVMVTVSS
VL: DIQMTQSPPSLSASLGDKVTITCQASQNINKYIAWYQQKPGKAPRLLIRYTSTLESGTPSRFSGSGSGRDYSFSISNVESEDIASYYCLQYVNLLTFGAGTKLEIK
notes: Parental rat antibody; also called rat SBT-004
